Here are results for three substances from IntAct's records for PubMed 22995871.

The target in the assay is mare1_mouse Mapre1 (UniProt Q61166).
Sequence of mare1_mouse Mapre1 (Q61166 whole entry): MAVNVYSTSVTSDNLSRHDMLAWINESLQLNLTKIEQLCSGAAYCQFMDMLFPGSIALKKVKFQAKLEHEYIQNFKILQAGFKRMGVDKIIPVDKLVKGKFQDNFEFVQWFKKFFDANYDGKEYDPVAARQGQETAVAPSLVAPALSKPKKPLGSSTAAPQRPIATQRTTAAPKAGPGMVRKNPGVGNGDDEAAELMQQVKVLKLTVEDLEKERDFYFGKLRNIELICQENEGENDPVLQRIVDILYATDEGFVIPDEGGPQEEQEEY
Take Dystonin (Homo sapiens), Q03001 D7246A: the “effect of a mutation on the interaction” value is on record as “disrupting interaction”.
The value for Dystonin (Homo sapiens), Q03001 D7248A was “disrupting interaction”.
The value for Dystonin (Homo sapiens), Q03001 D7250A was “disrupting interaction”.
